Assay results from PMC11580873.

Biological target: V5-FoTO1 (Taxus media)
Test: co-IP

Substance: T5αH-HA (from UniProt Q6WG30 1-499) (enzyme)
- fold change of the co-IP signal with 400 uM taxadiene in the lysate: 4 fold
